# Assay: soluble on expression in E. coli; label from the status in PepcDB or PDB records
row,Sequence,soluble on expression in E. coli
1,MKYRDLREFLNLLEQQGELVRVKQEIDPYLEMAEIADRTLRKAGPAILFENPKGYQMPVLCNLFGTPKRVALGMGQENTQALRELGKLLAFLKEPEPPKGFKELLGQLPQWKQILNMPSKTRDNAACQQIVIEGDAVNLYDLPIMHCHEEDIAPLITWGLTITQGPHKKRQNLGIYRQQLIAKNKLIMRWLSHRGGALDFQEWKATYPDKPFPVSVAIGADPATILAAVTPIPDTLPEYAFAGLLRGHKTEVIKSISNQLDVPASAEIVLEGYIDVNETALEGPYGDHTGYYNEQEYFPVFTVTHITMRKDAIYHSTYTGRPPDEPAVLGEALNEVFIPILQKQFPEIVDFYLPPEGCSYRLAVVTIKKQYAGHAKRVMMGVWSFLRQFMYTKFVIVCDDDINARNWKDVIWAITTRCDPSRDTTLIENTPIDYLDFASPIAGLGSKMGIDATNKWNGETIREWGKPITKNQQVVQHIDELWDQLGLLEHHHHHH,not soluble
2,MSLCAVTLMACNTAPHSLASSLPVPDALLFPQVQPEYKVAPGDLLLIKVFQVDDLERQVRVDNTGRITLPLLGSIEVSNKGAAELETLIANRYRSDYLQDPQVSVFIQEANARRVTVTGAVTEPGTYPLIGSNLTLQQVIAQAKGINTLASLQNVVVFRTVKGQKMLARFDLARIERGKDPDPEIYPGDLVVVYRSDMRLFLRTLVEITPFVMVWRAYREGHHHHHH,soluble
3,MALIVQKFGGTSVGTVERIQAVAQRIKRTVQGGNSLVVVVSAMGKSTDVLVDLAQQISPNPCRREMDMLLSTGEQVSIALLSLALQEIDQPAISLTGAQVGIVTEAEHSRARILEIRPDRLEHHLREGKVVVVAGFQGISSVEHLEITTLGRGGSDTSAVALAAALKADFCEIYTDVPGILTTDPRLVPEAQLMAEITCDEMLELASLGAKVLHPRAVEIARNYGIPLVVRSSWSDEPGTKVVAPPVQNRSLVGLEIAKAVDGVEYDADQAKVALLRVPDRPGVASKLFRDIAQQQVDIDLIIQSIHDGNSNDIAFTVVKDLLNTAEAVTSAIAPALRSYPEADQEAEIIVEKGIAKIAIAGAGMIGRPGIAAKMFKTLADVGVNIEMISTSEVKVSCVIDQRDADRAIAALSNAFGVTLSPPKNQTDTSHLPAVRGVALDQDQAQIAIRHVPDRPGMAAQLFTALAEANISVDMIIQSQRCRINQGTPCRDIAFMVAEGDSSQAEAILQPLIKDWLDAAIVVNKAIAKVSIVGSGMIGHPGVAAHFFAALAQENINIEMIATSEIKISCVVPQDRGVDALKAAHSAFNLAGTKTVTVPA,soluble
4,MDNKIVYVVSDSVGETADLVVRAAMGQFPFAPDIRRVPYVEDTGTLKEVISIAKSNQALICFTLVKPDMRQYLVTEAAKEGVEAYDIIGPLIDQIEEITGQVPRYEPGVVRRLDEEYFKKIEAIEFAVKYDDGRDARGILKADIVLIGVSRTSKTPLSQYLAHNKRLKVANVPLVPEVDPPEELYQVAKEKCFGLKITPDKLNHIRKERLKSLGLSDGATYANINRIQEEIDHFEEVISRINCQVIDVSNKAIEETANIIVNAVQNQKMF,not soluble
5,MSLDNSRTRPRVGHIQFLNCLPLYWGLARTGTLLDFELTKDTPEKLSEQLVRGDLDIGPVTLVEFLKNADDLVAFPDIAVGCDGPVMSCVIVSQVPLDRLDGARVALGSTSRTSVRLAQLLLSERFGVQPDYYTCPPDLSLMMQEADAAVLIGDAALRANMIDGPRYGLDVHDLGALWKEWTGLPFVFAVWAARRDYAEREPVITRKVHEAFLASRNLSLEEVEKVAEQAARWEAFDEDTLAKYFTTLDFRFGAPQLEAVTEFARRVGPTTGFPADVKVELLKPEGHHHHHH,soluble
6,MAHHHHHHMQKPIMIVGTSAPRRREIAQRHFGATYDLVYLSPDIDEKQIRDSDPFTLTRAIAQAKMDELRVKVARDAALQDRVAKRPGSVAITFDQVVDYHGEIREKPASEQQAAAFIHAYSNDNLGTVMTTVLYDFGTGKQVSMPNTTLTFYGEIPDETVARVVERGACLRTAGGFVVEDVDMKRCEIKIDPGTEEEVCGFCEKSVRALLEGVQRPWVQSDHCSDGKR,not soluble
7,MSLRIGVIGLGRIGTIHAENLKMIDDAILYAISDVREDRLREMKEKLGVEKAYKDPHELIEDPNVDAVLVCSSTNTHSELVIACAKAKKHVFCEKPLSLNLADVDRMIEETKKADVILFTGFNRRFDRNFKKLKEAVENGTIGKPHVLRITSRDPAPPPLDYIRVSGGIFLDMTIHDFDMARYIMGEEVEEVFADGSVLVDEEIGKAGDVDTAVVVLRFKSGALGVIDNSRRAVYGYDQRIEVFGSKGRIFADNVRETTVVLTDEQGDRGSRYLYFFLERYRDSYLEELKTFIKNVKSGEPPAVSGEDGKMALLLGYAAKKSLEEKRSVKLEEVIGEGHHHHHH,soluble

# From the DeepSol protein solubility set
